Laboratory results taken from paper PMC4851429 (Structure (London, England : 1993), 2015).

B1: human FLRT3 LRR domain (residues K29-D357) (domain or fragment, UniProt Q9NZU0 29-357, looked up)
chain: KSCPSVCRCDAGFIYCNDRFLTSIPTGIPEDATTLYLQNNQINNAGIPSDLKNLLKVERIYLYHNSLDEFPTNLPKYVKELHLQENNIRTITYDSLSKIPYLEELHLDDNSVSAVSIEEGAFRDSNYLRLLFLSRNHLSTIPWGLPRTIEELRLDDNRISTISSPSLQGLTSLKRLVLDGNLLNNHGLGDKVFFNLVNLTELSLVRNSLTAAPVNLPGTNLRKLYLQDNHINRVPPNAFSYLRQLYRLDMSNNNLSNLPQGIFDDLDNITQLILRNNPWYCGCKMKWVRDWLQSLPVKVNVRGLMCQAPEKVRGMAIKDLNAELFDCKD
modifications: N-linked glycosylation observed at N226
B2: biotinylated human LPHN3 olfactomedin domain (residues V132-G392) (domain or fragment, UniProt Q9HAR2 132-392, looked up)
chain: VFLCPGLLKGVYQSEHLFESDHQSGAWCKDPLQASDKIYYMPWTPYRTDTLTEYSSKDDFIAGRPTTTYKLPHRVDGTGFVVYDGALFFNKERTRNIVKFDLRTRIKSGEAIIANANYHDTSPYRWGGKSDIDLAVDENGLWVIYATEQNNGKIVISQLNPYTLRIEGTWDTAYDKRSASNAFMICGILYVVKSVYEDDDNEATGNKIDYIYNTDQSKDSLVDVPFPNSYQYIAAVDYNPRDNLLYVWNNYHVVKYSLDFG
modifications: biotin (biotinylated; residue not stated)
B3: human LPHN3 olfactomedin domain (residues V132-G392) (domain or fragment, UniProt Q9HAR2 132-392, looked up)
chain: B2 chain

Columns and labels:
SEC = biological target: the molecule itself; assay: SEC
[1] = biological target: B1; assay: flow cytometry on cells
[2] = biological target: B1; assay: BLI

Binder: B1
- stoichiometry N (SEC): 2

Binder: B2
- binding result [1]: binds

Binder: B3
- Kd [2]: 220 to 260 nM
